Source: patent EP4729546A1 (Jiangsu BioJeTay Biotechnology Co., Ltd., dated 2026)
Changes are numbered by the printed parent chain. Like-named read-outs stand apart in the source and are kept apart here. Values belong to the molecule of their own block, whether it stands above or below them.

Assays:
huFXII-his (human) [1] = molecular target: huFXII-his (human) (UniProt P00748); experiment: cell-based or functional assay
huFXII-his (human) [2] = molecular target: huFXII-his (human) (UniProt P00748); experiment: ELISA, huFXII-his coated at 1 µg/ml, HRP anti-human secondary, OD450
[3] = molecular target: FXIIa (purchased from Enzyme Research Lab) (UniProt P00748); experiment: cell-based or functional assay
huFXII-his (human) [4] = molecular target: huFXII-his (human) (UniProt P00748); experiment: cell-based or functional assay; remark: listed apart in the source
huFXII-his = molecular target: T1, huFXII-his (human, UniProt P00748 20-615); experiment: cell-based or functional assay
T1 sequence (looked up): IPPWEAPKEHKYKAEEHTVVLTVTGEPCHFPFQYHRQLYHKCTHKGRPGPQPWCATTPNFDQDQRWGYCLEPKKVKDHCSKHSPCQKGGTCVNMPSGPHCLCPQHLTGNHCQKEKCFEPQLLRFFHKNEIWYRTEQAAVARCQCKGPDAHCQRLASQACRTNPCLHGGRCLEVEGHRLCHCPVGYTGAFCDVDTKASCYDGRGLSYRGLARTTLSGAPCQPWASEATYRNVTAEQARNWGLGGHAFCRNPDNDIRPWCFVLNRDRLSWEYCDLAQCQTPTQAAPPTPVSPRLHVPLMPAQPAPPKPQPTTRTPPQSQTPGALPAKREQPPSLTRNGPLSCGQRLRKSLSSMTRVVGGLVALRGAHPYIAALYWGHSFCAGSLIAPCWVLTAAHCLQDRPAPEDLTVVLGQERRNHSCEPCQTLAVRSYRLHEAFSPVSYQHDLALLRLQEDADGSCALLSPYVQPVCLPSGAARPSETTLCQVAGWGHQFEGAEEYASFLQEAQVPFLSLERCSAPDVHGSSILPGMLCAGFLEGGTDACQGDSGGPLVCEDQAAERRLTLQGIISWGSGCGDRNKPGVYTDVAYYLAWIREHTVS

[5] = molecular target: T2, FXIIa (purchased from Enzyme Research Lab) (UniProt P00748 20-615, limits assumed); experiment: cell-based or functional assay
T2 sequence (looked up): T1 sequence (looked up)

- IC50 of inhibition of cleavage of chemical substrate S2302 by FXIIa (OD405) (huFXII-his (human) [1]): 0.0258 µg/mL
- EC50 (huFXII-his (human) [2]): 0.421 µg/mL
- IC50 of inhibition of the cleavage of PK proenzyme (prekallikrein) by FXIIa, read with pKa substrate CS-3102 (OD405) [3]: 0.11 µM
- IC50 of inhibition of cleavage of chemical substrate S2302 by FXIIa (OD405) (huFXII-his (human) [4]): 0.0232 µg/mL
Molecule: CSL312 (antibody)

- IC50 of inhibition of cleavage of chemical substrate S2302 by FXIIa (OD405) (huFXII-his (human) [1]): 0.0213 µg/mL
- IC50 of inhibition of cleavage of chemical substrate S2302 by FXIIa (OD405) (huFXII-his (human) [4]): 0.0251 µg/mL
B1: FX-Y17 (antibody, V domains shown)
VH: EVQLLESGGGLVQPGGSLRLSCAGSGFSFGSQTMSWVRQAPGKGLEWVSSISVISGRTYYADSVKGRFTISRDNSKNTLYLQMNSLRAEDTAVYYCTKSHAFDVWGQGTMVTVSS
VL: EIVLTQSPATLSVSPGERATLSCRASQSVYSNLAWYQQKPGQAPRLLIYGASTRATGIPARFSGSGSGTEFTLTISSLQSEDFAVYYCQQYNKWPLSFGGGTKVEIK

- IC50 of inhibition of cleavage of chemical substrate S2302 by FXIIa (OD405) (huFXII-his): 0.0225 µg/mL
B2: FX-Y17-Y50 (antibody, V domains shown)
VH: B1 VH with T58R
VL: B1 VL with N32A, N92H

- IC50 of inhibition of cleavage of chemical substrate S2302 by FXIIa (OD405) (huFXII-his): 0.0166 µg/mL
B3: FX-Y17-Y24 (antibody, V domains shown)
VH: B1 VH with V53Y, S99G
VL: B1 VL with N32A, N92H

- IC50 of inhibition of the cleavage of PK proenzyme (prekallikrein) by FXIIa, read with pKa substrate CS-3102 (OD405) [5]: 0.0235 µM
- IC50 of inhibition of cleavage of chemical substrate S2302 by FXIIa (OD405) (huFXII-his (human) [1]): 0.0221 µg/mL
- EC50 (huFXII-his (human) [2]): 0.358 µg/mL
B4: FX-Y17-Y45 (antibody, V domains shown)
VH: B1 VH with V53H, T97A
VL: B1 VL with N32A, Y91N, K93R

- IC50 of inhibition of the cleavage of PK proenzyme (prekallikrein) by FXIIa, read with pKa substrate CS-3102 (OD405) [5]: 0.0306 µM
- IC50 of inhibition of cleavage of chemical substrate S2302 by FXIIa (OD405) (huFXII-his (human) [1]): 0.0116 µg/mL
- EC50 (huFXII-his (human) [2]): 0.205 µg/mL
B5: FX-Y17-Y4 (antibody, V domains shown)
VH: B1 VH with I51S, S52H
VL: B1 VL with S31Y, N92H

- IC50 of inhibition of cleavage of chemical substrate S2302 by FXIIa (OD405) (huFXII-his): 0.0163 µg/mL
B6: FX-Y17-Y26 (antibody, V domains shown)
VH: B1 VH
VL: B1 VL with N32A, N92H

- IC50 of inhibition of cleavage of chemical substrate S2302 by FXIIa (OD405) (huFXII-his): 0.0155 µg/mL
B7: FX-Y17-Y51 (antibody, V domains shown)
VH: B1 VH with T58N, K98R
VL: B1 VL with N32A, N92H

- IC50 of inhibition of cleavage of chemical substrate S2302 by FXIIa (OD405) (huFXII-his): 0.0282 µg/mL
- IC50 of inhibition of the cleavage of PK proenzyme (prekallikrein) by FXIIa, read with pKa substrate CS-3102 (OD405) [5]: 0.0271 µM
B8: FX-Y17-Y34 (antibody, V domains shown)
VH: B1 VH with G56R, K98R
VL: B1 VL with Y30W, N92H

- IC50 of inhibition of cleavage of chemical substrate S2302 by FXIIa (OD405) (huFXII-his): 0.0179 µg/mL
B9: FX-Y17-Y47 (antibody, V domains shown)
VH: B1 VH with T58D, K98R
VL: B1 VL with N32A, N92H

- IC50 of inhibition of cleavage of chemical substrate S2302 by FXIIa (OD405) (huFXII-his): 0.0141 µg/mL
B10: FX-Y17-Y48 (antibody, V domains shown)
VH: B1 VH with T58A, K98R
VL: B1 VL with N32A, N92H

- IC50 of inhibition of cleavage of chemical substrate S2302 by FXIIa (OD405) (huFXII-his (human) [4]): 0.0398 µg/mL
B11: FX-Y39 (antibody, V domains shown)
VH: QVQLQQSGGGLVQTGGSLRLACAGTGFTFSDYSMNWVRQAPGKGLEWVSYISNSRSRSSKYYADSVKGRFTISRDNAKNSLYLQMNSLRAEDTAVYYCARIGYCKNGVCGGAYDYWGQGTLVTVSS
VL: EIVLTQSPSAMSASVGDRVTITCRASQAIRNNLAWFQQKPGKVPKRLMNTASSLESGVPSRFSGSGSGTEFTLTITSLQPEDFASYYCLQYHDSPWTFGQGTKLEIK
